Results published in the nanobody polyreactivity screen of Harvey et al. (2022).

test: yeast display, Sf9 membrane polyspecificity reagent, FACS + sequencing; frameworks hold sequencing errors
How it was run: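 Galactose induction of a Saccharomyces cerevisiae BJ5465 synthetic nanobody display library ran 36–48 hours. The cells were then stained for 1 hour at 4 °C with 10% biotinylated, detergent-solubilized Sf9 membrane reagent, pulled down on streptavidin microbeads and FACS-sorted into low and high (top ~1%) gates on expression and reagent-binding fluorescence. Labels for polyreactivity follow the gate of origin.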

| Sequence | polyreactivity (PSR sort gate) |
| --- | --- |
| QVQLVESGGGLVQAGGSLRLRCAASGRIFGLYAMGWYRQAPGKERQLVAAISRGGGSTYYADSVKGRFTISRDNAKNTVYLQMNSLNPEDTEVYYCATGLGYFSRLDYCGQGTQVTVSS | low polyreactivity |
| QVQLVESGGGLVQAGGSLRLRCAASGRIFGRNAMGWYRQAPGKERELVATISSGDTTDYADSVKGRFTISRDNAKNTVYLQMNSLKPEDTAVYYITIYNYWGQGTQVTVSS | low polyreactivity |
| QVQLVESGGGLVQAGGSLRLRCAASGRIFRIYPMGWYRQAPGKERELVARITYSGGSTYYADSVKGRFTISRDNAKNTVYLQMNSLKPEDTAVYYCAADWLGYQYGYWGQGTQVTVSS | low polyreactivity |
| QVQLVESGGGLVQAGGSLRLRCAASGRTFLPYAMGWSRQAPGKVRVLVAAIDSSGTSTYYADSVKGRFTISRDNAKNTVYLQMNSLKPEDTAVYYCAKAWPDHWYSRYDYWGQGTQVTVSS | low polyreactivity |
| QVQLVESGGGLVQAGGSLRLRCAASGRTFSSNAMGWYRQAPGKERELVASISRRGGSTYYADSVKGRFTISRDNAKNSVYVQMNSLKPEDTAVYDCAARQSGQILGYYSRYDYWGQGTQVTVSS | high polyreactivity |
| QVQLVESGGGLVQAGGSLRLRCAASGRTFTAYTMGLYRQAPGKEREFVASISSGVTYADSVKGRFTISRDNAKITVYLQMNSLKPEDTAVYYCAARLWYVQGYVPYVHHRFDYWGQGTQVTVSS | low polyreactivity |
| QVQLVESGGGLVQAGGSLRLRCAASGSIFARNAMGWYRQAPGKERELVASITWSGASTFYADSVKGRFTISRDNAKYTVYLQMNSLKPDVTAVYYCAATDQKLSLDYSSYEYWGQGSQVTVSS | low polyreactivity |
| QVQLVESGGGLVQAGGSLRLRCAASGSIFIRYAMGWYRQAPGKERELVAVISGRGVRTNYADSVKGRFTIARDTAKNPVYLQMNSLKPEDTAVYYCAVRYYGKQLGPGVRYTYNYLGQGTQVTVSS | high polyreactivity |
| QVQLVESGGGLVQAGGSLRLRCAASGSIFWPYAMGWYRQAPGKERELVAGISSGGSTYYADSVKGRFTISRDNAKNTDYLQMNSLKPEDTAVYYCAARWQWLNGYYYWGQGSQVTVSS | high polyreactivity |
| QVQLVESGGGLVQAGGSLRLRCAASGSIFYRNAMGWYRQAPGTERELVAAISSDGSTNYADSVKGRFSISRDNAKNTVYLQMNSLKPEDTAVYYCNADYVQQVAKYQYGYEYGYWGQGTQVTVSS | low polyreactivity |
| QVQLVESGGGLVQAGGSLRLRCAASGSTFEMYAMGWYRQEPGKERELVAAITWDTDSTYYADSVKGRFTISRDNAKNTVYLQMNSLKPEDTAVYYCNSQSGRASHYRGYGFDYWGQGTQVTVSS | high polyreactivity |
| QVQLVESGGGLVQAGGSLRLRCAASGSTFGRNTMGWYRQAPGKERELVAAISKSGGYTRYADSVKGRFTISRDNAKNTVYLQMNSLKPEDTAVYYCAARVYSLGYGGDYWGQGTQVTVSS | high polyreactivity |
| QVQLVESGGGLVQAGGSLRLRCAASGSTFSEYAMGWYRQAPGKERELVAAISYNGGSTYYADSVKGRFTISRDNAKNTVYLQMNSLKPEDTAVYYCNAKLFYDRYDYWGQGTQVTVSS | low polyreactivity |
| QVQLVESGGGLVQAGGSLRLRCAASGSTFTYNTMGWYRQAPGKERELVAAINTTGNTYADSVKGRFTISRDNAKNTVYLQMNSLKPEDTAVYYCNTDYVPRRHDMDYWGQGTQVTLSS | low polyreactivity |
| QVQLVESGGGLVQAGGSLRLRCAASGSTFVRYAMGWYREAAGKEMELVAAISSRGGSTYYADSVKGRFTISRDNAKNTVYLQMNSLKPEDTAVYYCNAAAFINFMLYDYWGQGTQVTVSS | high polyreactivity |
| QVQLVESGGGLVQAGGSLRLRCAASGSTFYIYAMGWYRPAPGKERELVARISGSGGSTYYADSVKGRFTISRDNAKNTVYLQMNSLKPEDTSVYSCAAQRRVVGRHGLSLIRYDYWGQGTQVTVSS | low polyreactivity |
| QVQLVESGGGLVQAGGSLRLRCAASGSTSWSNPMGWYRQAPGKERELVAAITTGASTYYADSVKGRFTISRDNAKNTVYLQMNSLKPEDTAVYYCAADPWVLWSYYYWGQGTQVTVSS | low polyreactivity |
| QVQLVESGGGLVQAGGSLRLRCAASGTFYLYAMGWYRQAPWKQRELVAAISGSGSTNYADSVKGRFTISRDNAKNTVYLQMNSLKPEDTAVYYCAAYQRYDSLTGARYEYDYWGQGTQVTVSS | low polyreactivity |
| QVQLVESGGGLVQAGGSLRLRCAASGYTFKHYTMGWYREAPGKERELVAAISRRGGRTYYADSVKGRFTISRDNAKNTVYLQMNSLKPEDTAVYYCNRVPRARKGDYWGQGTQVTVSS | high polyreactivity |
| QVQLVESGGGLVQAGGSLRLRCAASGYTLTPYTMGWYRQAPGKERELVAAINRSGGSTYYADSVKGRFTISRDNAKNTVYLQMNSLKPEDTAVYYCAAYGYYNFGYYYWGQGTQVTVSS | high polyreactivity |
| QVQLVESGGGLVQAGGSLRLRCAASRRTLGVYALGWYRQAPGKERELVATITAGGSITSYADSVKGRFTISRDNAKNTVYLQMNTLKPEDTAVYYCAAEQGCSVLYDSWGQGTQVTVSS | low polyreactivity |

| Sequence | polyreactivity (PSR sort gate) |
| --- | --- |
| QVQLVESGGGLVQAGGSLRLRCAASVRIFRVYAMGRYSQAPGKERELVAAISSSGGSTYYADSVKGRFTMSRDNAKNTDYLQMNSLKPEDTAVYYCAAGGLHTIQRPGYYYWGQGTQVTVSS | low polyreactivity |
| QVQLVESGGGLVQAGGSLRLRCAPSGFIFIFNAMGWYRQAPGKERELVAAIDTSDDSTYYADSVKGRFTISRDNAKNTVYLQMNSLKPEDTAVYYCAAEELSNYEYWGQGTQVTVSS | low polyreactivity |
| QVQLVESGGGLVQAGGSLRLRCASSGGIFYLNAMGWYRQAPGKERELVAAITGTGGNTYYADSVKGRFTISRDNAKNTVYLQMNSLKPEDTGVYYCNVSSRRLRGLDYWGQGTQVSVSS | low polyreactivity |
| QVQLVESGGGLVQAGGSLRLRCASSGRNFVPYAMGGDRQAPGTEREFVAAISRSGGSTHYADSVKGRFTISRDNAKNTVYLQMNSLKPEDTAVYYCAADYDLWLWSGYYWGQGTQVTVSS | high polyreactivity |
| QVQLVESGGGLVQAGGSLRLRCASSGYIFTYYAMGWYRQAPGKERELVAAISWSGGRTYYADSVKGRFTISRDNAKITVYLQMNSLKPEDTAVYYCNAVDKRYPDMDYWGQGTQVTVSS | high polyreactivity |
| QVQLVESGGGLVQAGGSLRLRCGASGRTFSSNAMGWYRQAPGKERELVAVITRRGGSTYYADSVKGLFTISRDNAMNNVYLQMNSLKPEDTAVYYCATVAPPQRSGRRSAGEKYYYWGQGTQVTVSS | high polyreactivity |
| QVQLVESGGGLVQAGGSLRLRCSASGSTIKDYTMGLYRQAPGKERELVAAITDSGGSTYYADSVKGRFTISRDNAKNTVYLQMNSLTPEDTAVYFCAAAVPELYEVRYHDDYWGQGTQVTVSS | low polyreactivity |
| QVQLVESGGGLVQAGGSLRLRGAASGSIFSSNAKGWCRPAPGKERELVAAICRSGGDTYYADSVKGRFTISRDNAKNTVYLQMNSLKPVDTAVYYCAARNSYGGPTYEHYYWGQGTQVSVSS | high polyreactivity |
| QVQLVESGGGLVQAGGSLRLRSAASGIILGKYAMGWYRQAPGKERELVAAISGRGGRTYYADSVKGRFTISRDNAKNTVYLQMNSLKQEDTAVYYWWGQGTQVTVSS | low polyreactivity |
| QVQLVESGGGLVQAGGSLRLRSAASGYTFSIYAMGRYRQATGKERELVASISWSAGNTYYADYVKGRFTFSLDNAKNTVYLQMNSLKPEDTAVYYCAVPRRLIWYRPSSYDYWGQGTQVTVSS | low polyreactivity |
| QVQLVESGGGLVQAGGSLRLSCAAAGIIFILYTMGWYRKAPGKERELVATISSGGGSTFYADSVKGRFTISRDNAKNTVYLQMHRLKPEDTAVYYCAAFPVFGYSYDYWGQGTQVTVSS | low polyreactivity |
| QVQLVESGGGLVQAGGSLRLSCAAAGLIFRFYAMGWYRQSPGKERELVAAISSRGGSRYYADSVKGRFTISRDNAKNTVYLQMNSLKPEDTAVYYCAAAVRKMAYPHYEYGYWGQGTQVTVSS | high polyreactivity |
| QVQLVESGGGLVQAGGSLRLSCAAAGLTFEWYTMGWYRQAPGKERELVADISGDGSTYYADSVKGRFTISRDNAKNTVYLQMNSLKPEDTAVYYCAASFWGFAMGYWGQGTQVTVSS | high polyreactivity |
| QVQLVESGGGLVQAGGSLRLSCAAAGRTFFKYAMGWYRQAPGKERELVATITSSGGITYADSVKGRFTISRDNAKNTVYLQMNRLKPEDTAVYYCNARVWVTHYSELNYWVQGTQVTVSS | low polyreactivity |
| QVQLVESGGGLVQAGGSLRLSCAAAGSIFSYYAMGWSRPEPGKEREFVATIRRSGASTYYADSVKGRFTISRDNAKNTGYLQMNSLKPEDTAVYYCNAASARRPIYEAARGSKYDYWGQRTQVTVSS | low polyreactivity |
| QVQLVESGGGLVQAGGSLRLSCAAAGSIFYYNAMGWYRQAPGKERELVASIRAHGGNTYYADSVKGRFTISRDNAKNTVYLQMNSLKPEDTAVYYCAKESRYAHLYYYWGLGTQVTVSS | low polyreactivity |
| QVQLVESGGGLVQAGGSLRLSCAACGFTFTIYAMGWYRQAPGKERELVATISGRAGRTYYADSVKGRFTISRDNAKNTVYLQMNSLKPEDTAVYYCTAGQWRYPGLYYYWGQGTQVTVSS | high polyreactivity |
| QVQLVESGGGLVQAGGSLRLSCAACGNTFTYYAMGLYRQAPGKERELVASISSGVSTNYADSVKGRFTISRDNAKNTLYLHINSLKPEDTAVYYCARGWSFSTRRFQHTRYYYWGQGTQVTVSS | high polyreactivity |
| QVQLVESGGGLVQAGGSLRLSCAACGRIFTPNAMGWYRPAPGKERELVAAITWSGDNTYADSVKGRFTISRDNAKNTVYLQMNSLKPEDTAVYYCAAAYGYGHKNYGYWRQGTQVTVSS | low polyreactivity |
| QVQLVESGGGLVQAGGSLRLSCAACGRIFVYYVMGWYRQAPGKERELVAAISNSGTSTYYADSLKGRFTISRDNAKNTVYLQMNSLKPEDTAVYYCNTVGQRWLSDDDYWGQGTQVTVSS | low polyreactivity |
